± gives the uncertainty stated by the source.
Assay: self-splicing fitness, log relative to wild type (ln ratio); higher = more splicing; Tetrahymena group I intron in knt gene, E. coli kanamycin selection, DiMSum; sequences stand for … in CUCUCU…GGAGGGAAAAGUUAUCAGGCAUGCACCUGGUAGCUAGUCUUUAAACCAAUAGAUUGCAUCGGUUUAAAAGGCAAGACCGUCAAAUUGCGGGAAAGGGGUCAACAGCCGUUCAGUACCAAGUCUCAGGGGAAACUUUGAGAUGGCCUUGCAAAGGGUAUGGUAAUAAGCUGACGGACAUGGUCCUAACCACGCAGCCAAGUCCUAAGUCAACAGAUCUUCUGUUGAUAUGGAUGCAGUUCACAGACUAAAUGUCGGUCGGGGAAGAUGUAUUCUUCUCAUAAGAUAUAGUCGGACCUCUCCUUAAUGGGAGCUAGCGGAUGAAGUGAUGCAACACUGGAGCCGCUGGGAACUAAUUUGUAUGCGAAAGUAUAUUGAUUAGUUUUGGAGUACUCGUGGUCG
Procedure, shortened: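 Colonies from six replicate transformations of E. coli BL21(DE3) were pooled and amplicon-sequenced on an Illumina HiSeq 2500. The library placed an intron with all eight P1ex-region nucleotides randomised inside the knt kanamycin-resistance gene on pET-22b(+), and cells grew overnight at 37°C or 30°C on LB agar with or without 25 μg/mL kanamycin (plus 100 μg/mL carbenicillin, 50 μM IPTG, 0.2% rhamnose). Fitness is the DiMSum error-weighted combination of wild-type-normalised replicate fold changes, kanamycin versus none.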

Sequence	self-splicing fitness (ln) (30 °C)	self-splicing fitness (ln) (37 °C)
AUAUAGCAAUAUUACGCACU	-0.015 ± 0.13	-0.204 ± 0.16
AUAUAGCAAUAUUACGCAGC	-3.62 ± 0.43	-1.92 ± 0.27
AUAUAGCAAUAUUACGCCGU	-0.99 ± 0.24	-0.413 ± 0.19
AUAUAGCAAUAUUACGCGAC	-2.73 ± 0.22	-2.32 ± 0.21
AUAUAGCAAUAUUACGCGCG	-0.915 ± 0.12	-0.503 ± 0.15
AUAUAGCAAUAUUACGCUGC		-1.74 ± 0.34
AUAUAGCAAUAUUACGGAAA		-0.209 ± 0.33
AUAUAGCAAUAUUACGGAGC		-2.15 ± 0.46
AUAUAGCAAUAUUACGGCAG	-1.74 ± 0.16	-1.79 ± 0.19
AUAUAGCAAUAUUACGGCGU	-0.109 ± 0.11	-0.16 ± 0.12
AUAUAGCAAUAUUACGGCUC	-0.0589 ± 0.13	-0.144 ± 0.16
AUAUAGCAAUAUUACGGGAA	-2.9 ± 0.2	-2.23 ± 0.19
AUAUAGCAAUAUUACGGGGA	-2.21 ± 0.32	-1.72 ± 0.41
AUAUAGCAAUAUUACGGGUG	-1.81 ± 0.17	-1.3 ± 0.15
AUAUAGCAAUAUUACGGUAC	-3.69 ± 0.39	-2.59 ± 0.22
AUAUAGCAAUAUUACGGUUG	-3.18 ± 0.2	-2.24 ± 0.26
AUAUAGCAAUAUUACGUAAA	-2.17 ± 0.21	-1.56 ± 0.29
AUAUAGCAAUAUUACGUAGA	-2.19 ± 0.094	-1.87 ± 0.15
AUAUAGCAAUAUUACGUAUG	-3.36 ± 0.25	-1.72 ± 0.3
AUAUAGCAAUAUUACGUGGU	-2.88 ± 0.19	-1.54 ± 0.29
AUCAAGCAAUAUUACGAAGU	-2.52 ± 0.11	-1.22 ± 0.12
AUCAAGCAAUAUUACGACAC	-1.45 ± 0.079	-0.324 ± 0.11

Sequence	self-splicing fitness (ln) (30 °C)	self-splicing fitness (ln) (37 °C)
AUCAAGCAAUAUUACGACGG	-3.8 ± 0.14	-2.67 ± 0.15
AUCAAGCAAUAUUACGAGAA	-1.21 ± 0.49	-2.28 ± 0.28
AUCAAGCAAUAUUACGAGCA	-1.3 ± 0.075	-0.375 ± 0.076
AUCAAGCAAUAUUACGAGUA	-1.56 ± 0.11	-0.436 ± 0.1
AUCAAGCAAUAUUACGAUAU	-1.21 ± 0.065	-0.753 ± 0.092
AUCAAGCAAUAUUACGAUCA	-1.14 ± 0.1	-0.582 ± 0.11
AUCAAGCAAUAUUACGCCAA	-1.99 ± 0.16	-0.947 ± 0.13
AUCAAGCAAUAUUACGCCGC	-2.23 ± 0.34	
AUCAAGCAAUAUUACGCCUG	-1.61 ± 0.12	-0.797 ± 0.16
AUCAAGCAAUAUUACGCGCA	-0.314 ± 0.073	0.448 ± 0.098
AUCAAGCAAUAUUACGCUAG	-2.76 ± 0.16	-1.03 ± 0.13
AUCAAGCAAUAUUACGCUUU	-3.57 ± 0.15	-2.31 ± 0.12
AUCAAGCAAUAUUACGGUGG	-3.54 ± 0.19	-2.63 ± 0.2
AUCAAGCAAUAUUACGUAAG	-2.05 ± 0.097	-1.45 ± 0.13
AUCAAGCAAUAUUACGUACG	-2.54 ± 0.11	-0.576 ± 0.11
AUCAAGCAAUAUUACGUAGA	-1.36 ± 0.094	-1.66 ± 0.17
AUCAAGCAAUAUUACGUCAA	-3.14 ± 0.2	-0.928 ± 0.15
AUCAAGCAAUAUUACGUCCG	-2.1 ± 0.14	-1.14 ± 0.16
AUCAAGCAAUAUUACGUGAA	-1.73 ± 0.071	-1.45 ± 0.1
AUCAAGCAAUAUUACGUUGG	-2.7 ± 0.13	-2.25 ± 0.16
AUCAAGCAAUAUUACGUUGU	-3.46 ± 0.17	-1.92 ± 0.12

Reference: the supplement of paper PMC7877785
